Where a chain is given by its changes, count along the chain named. Starred links: 1 amine or outer side, 2 acyl side, 3 side chain; linkers in the order of their positions; H or OH if unused. Non-standard residues stand in square brackets, D forms with d. Groups on a side chain read outwards from the residue. No end group written: not given here. *: point of attachment. C20 diacid = O=C(O)CCCCCCCCCCCCCCCCCCC(=O)*; γGlu = O=C(O)[C@H](CCC(=O)[*:2])N[*:1]; 4Pal = N[C@@H](Cc1ccncc1)C(=O)O; αMeL = CC(C)C[C@](C)(N)C(=O)O; Orn = NCCC[C@H](N)C(=O)O; AEEA = NCCOCCOCC(=O)O; Aib = CC(C)(N)C(=O)O
T1: human glucose-dependent insulinotropic peptide receptor (human, UniProt P48546 22-466)
T1 sequence (looked up): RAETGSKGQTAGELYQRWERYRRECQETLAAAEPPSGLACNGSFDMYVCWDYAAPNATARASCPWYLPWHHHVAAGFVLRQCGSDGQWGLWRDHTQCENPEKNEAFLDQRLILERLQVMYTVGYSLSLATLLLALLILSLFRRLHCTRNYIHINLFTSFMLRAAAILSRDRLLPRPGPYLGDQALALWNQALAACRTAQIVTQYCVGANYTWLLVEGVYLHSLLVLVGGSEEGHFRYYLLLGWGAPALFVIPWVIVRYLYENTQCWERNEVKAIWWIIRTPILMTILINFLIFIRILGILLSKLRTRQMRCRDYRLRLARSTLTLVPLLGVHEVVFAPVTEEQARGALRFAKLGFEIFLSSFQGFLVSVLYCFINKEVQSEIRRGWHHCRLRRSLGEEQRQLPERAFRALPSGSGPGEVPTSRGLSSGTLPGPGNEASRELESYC

B1: Example 73 (peptide)
peptide: Y[Aib]EGTLISDYSI[αMeL]LDKK([AEEA-AEEA-γGlu-C20 diacid])HQ[Aib]EFVEYLLEGGPSSGAPPPS-NH2
modifications: N-terminus assumed
SMILES: CC[C@H](C)[C@H](NC(=O)[C@H](CC(C)C)NC(=O)[C@@H](NC(=O)CNC(=O)[C@H](CCC(=O)O)NC(=O)C(C)(C)NC(=O)[C@@H](N)Cc1ccc(O)cc1)[C@@H](C)O)C(=O)N[C@@H](CO)C(=O)N[C@@H](CC(=O)O)C(=O)N[C@@H](Cc1ccc(O)cc1)C(=O)N[C@@H](CO)C(=O)N[C@H](C(=O)N[C@@](C)(CC(C)C)C(=O)N[C@@H](CC(C)C)C(=O)N[C@@H](CC(=O)O)C(=O)N[C@@H](CCCCN)C(=O)N[C@@H](CCCCNC(=O)COCCOCCNC(=O)COCCOCCNC(=O)CC[C@H](NC(=O)CCCCCCCCCCCCCCCCCCC(=O)O)C(=O)O)C(=O)N[C@@H](Cc1c[nH]cn1)C(=O)N[C@@H](CCC(N)=O)C(=O)NC(C)(C)C(=O)N[C@@H](CCC(=O)O)C(=O)N[C@@H](Cc1ccccc1)C(=O)N[C@H](C(=O)N[C@@H](CCC(=O)O)C(=O)N[C@@H](Cc1ccc(O)cc1)C(=O)N[C@@H](CC(C)C)C(=O)N[C@@H](CC(C)C)C(=O)N[C@@H](CCC(=O)O)C(=O)NCC(=O)NCC(=O)N1CCC[C@H]1C(=O)N[C@@H](CO)C(=O)N[C@@H](CO)C(=O)NCC(=O)N[C@@H](C)C(=O)N1CCC[C@H]1C(=O)N1CCC[C@H]1C(=O)N1CCC[C@H]1C(=O)N[C@@H](CO)C(N)=O)C(C)C)[C@@H](C)CC
B2: Example 79 (peptide)
peptide: Y[Aib]EGTFISDYSI[αMeL]LDKK([AEEA-AEEA-γGlu-C20 diacid])HQ[Aib]DFVE[4Pal]LLAQGPSSGAPPPS-NH2
modifications: N-terminus assumed
SMILES: CC[C@H](C)[C@H](NC(=O)[C@H](Cc1ccccc1)NC(=O)[C@@H](NC(=O)CNC(=O)[C@H](CCC(=O)O)NC(=O)C(C)(C)NC(=O)[C@@H](N)Cc1ccc(O)cc1)[C@@H](C)O)C(=O)N[C@@H](CO)C(=O)N[C@@H](CC(=O)O)C(=O)N[C@@H](Cc1ccc(O)cc1)C(=O)N[C@@H](CO)C(=O)N[C@H](C(=O)N[C@@](C)(CC(C)C)C(=O)N[C@@H](CC(C)C)C(=O)N[C@@H](CC(=O)O)C(=O)N[C@@H](CCCCN)C(=O)N[C@@H](CCCCNC(=O)COCCOCCNC(=O)COCCOCCNC(=O)CC[C@H](NC(=O)CCCCCCCCCCCCCCCCCCC(=O)O)C(=O)O)C(=O)N[C@@H](Cc1c[nH]cn1)C(=O)N[C@@H](CCC(N)=O)C(=O)NC(C)(C)C(=O)N[C@@H](CC(=O)O)C(=O)N[C@@H](Cc1ccccc1)C(=O)N[C@H](C(=O)N[C@@H](CCC(=O)O)C(=O)N[C@@H](Cc1ccncc1)C(=O)N[C@@H](CC(C)C)C(=O)N[C@@H](CC(C)C)C(=O)N[C@@H](C)C(=O)N[C@@H](CCC(N)=O)C(=O)NCC(=O)N1CCC[C@H]1C(=O)N[C@@H](CO)C(=O)N[C@@H](CO)C(=O)NCC(=O)N[C@@H](C)C(=O)N1CCC[C@H]1C(=O)N1CCC[C@H]1C(=O)N1CCC[C@H]1C(=O)N[C@@H](CO)C(N)=O)C(C)C)[C@@H](C)CC
B3: Example 78 (peptide)
peptide: Y[Aib]EGTFISDYSI[αMeL]LDKK([AEEA-AEEA-γGlu-C20 diacid])HQ[Aib]DFVE[4Pal]LLAAGPSSGAPPPS-NH2
modifications: N-terminus assumed
SMILES: CC[C@H](C)[C@H](NC(=O)[C@H](Cc1ccccc1)NC(=O)[C@@H](NC(=O)CNC(=O)[C@H](CCC(=O)O)NC(=O)C(C)(C)NC(=O)[C@@H](N)Cc1ccc(O)cc1)[C@@H](C)O)C(=O)N[C@@H](CO)C(=O)N[C@@H](CC(=O)O)C(=O)N[C@@H](Cc1ccc(O)cc1)C(=O)N[C@@H](CO)C(=O)N[C@H](C(=O)N[C@@](C)(CC(C)C)C(=O)N[C@@H](CC(C)C)C(=O)N[C@@H](CC(=O)O)C(=O)N[C@@H](CCCCN)C(=O)N[C@@H](CCCCNC(=O)COCCOCCNC(=O)COCCOCCNC(=O)CC[C@H](NC(=O)CCCCCCCCCCCCCCCCCCC(=O)O)C(=O)O)C(=O)N[C@@H](Cc1c[nH]cn1)C(=O)N[C@@H](CCC(N)=O)C(=O)NC(C)(C)C(=O)N[C@@H](CC(=O)O)C(=O)N[C@@H](Cc1ccccc1)C(=O)N[C@H](C(=O)N[C@@H](CCC(=O)O)C(=O)N[C@@H](Cc1ccncc1)C(=O)N[C@@H](CC(C)C)C(=O)N[C@@H](CC(C)C)C(=O)N[C@@H](C)C(=O)N[C@@H](C)C(=O)NCC(=O)N1CCC[C@H]1C(=O)N[C@@H](CO)C(=O)N[C@@H](CO)C(=O)NCC(=O)N[C@@H](C)C(=O)N1CCC[C@H]1C(=O)N1CCC[C@H]1C(=O)N1CCC[C@H]1C(=O)N[C@@H](CO)C(N)=O)C(C)C)[C@@H](C)CC
B4: Example 81 (peptide)
peptide: Y[Aib]EGTFISDYSI[αMeL]LD[Orn]K([AEEA-AEEA-γGlu-C20 diacid])HQ[Aib]DFVE[4Pal]LLEQGPSSGAPPPS-NH2
modifications: N-terminus assumed
SMILES: CC[C@H](C)[C@H](NC(=O)[C@H](Cc1ccccc1)NC(=O)[C@@H](NC(=O)CNC(=O)[C@H](CCC(=O)O)NC(=O)C(C)(C)NC(=O)[C@@H](N)Cc1ccc(O)cc1)[C@@H](C)O)C(=O)N[C@@H](CO)C(=O)N[C@@H](CC(=O)O)C(=O)N[C@@H](Cc1ccc(O)cc1)C(=O)N[C@@H](CO)C(=O)N[C@H](C(=O)N[C@@](C)(CC(C)C)C(=O)N[C@@H](CC(C)C)C(=O)N[C@@H](CC(=O)O)C(=O)N[C@@H](CCCN)C(=O)N[C@@H](CCCCNC(=O)COCCOCCNC(=O)COCCOCCNC(=O)CC[C@H](NC(=O)CCCCCCCCCCCCCCCCCCC(=O)O)C(=O)O)C(=O)N[C@@H](Cc1c[nH]cn1)C(=O)N[C@@H](CCC(N)=O)C(=O)NC(C)(C)C(=O)N[C@@H](CC(=O)O)C(=O)N[C@@H](Cc1ccccc1)C(=O)N[C@H](C(=O)N[C@@H](CCC(=O)O)C(=O)N[C@@H](Cc1ccncc1)C(=O)N[C@@H](CC(C)C)C(=O)N[C@@H](CC(C)C)C(=O)N[C@@H](CCC(=O)O)C(=O)N[C@@H](CCC(N)=O)C(=O)NCC(=O)N1CCC[C@H]1C(=O)N[C@@H](CO)C(=O)N[C@@H](CO)C(=O)NCC(=O)N[C@@H](C)C(=O)N1CCC[C@H]1C(=O)N1CCC[C@H]1C(=O)N1CCC[C@H]1C(=O)N[C@@H](CO)C(N)=O)C(C)C)[C@@H](C)CC
B5: Example 74 (peptide)
peptide: YXEGTXISDYSIXLDKKHQXDFVEXLLEGGPSSGAPPPS
modifications: Aib2; Iva6; αMeL13; K17((2-[2-(2-Amino-ethoxy)-ethoxy]-acetyl)2-(γ-Glu)-CO-(CH2)18-CO2H); Aib20; 4-Pal25; C-terminal amide
B6: Example 77 (peptide)
peptide: B5 peptide with K16X, G29T
modifications: Aib2; Iva6; αMeL13; Orn16; K17((2-[2-(2-Amino-ethoxy)-ethoxy]-acetyl)2-(γ-Glu)-CO-(CH2)18-CO2H); Aib20; 4-Pal25; C-terminal amide
B7: Example 76 (peptide)
peptide: B5 peptide with K16X
modifications: Aib2; Iva6; αMeL13; Orn16; K17((2-[2-(2-Amino-ethoxy)-ethoxy]-acetyl)2-(γ-Glu)-CO-(CH2)18-CO2H); Aib20; 4-Pal25; C-terminal amide
B8: Example 75 (peptide)
peptide: B5 peptide with G29T
modifications: Aib2; Iva6; αMeL13; K17((2-[2-(2-Amino-ethoxy)-ethoxy]-acetyl)2-(γ-Glu)-CO-(CH2)18-CO2H); Aib20; 4-Pal25; C-terminal amide
B9: Example 80 (peptide)
peptide: Y[Aib]EGTFISDYSI[αMeL]LD[Orn]K([AEEA-AEEA-γGlu-C20 diacid])HQ[Aib]DFVE[4Pal]LLETGPSSGAPPPS-NH2
modifications: N-terminus assumed
SMILES: CC[C@H](C)[C@H](NC(=O)[C@H](Cc1ccccc1)NC(=O)[C@@H](NC(=O)CNC(=O)[C@H](CCC(=O)O)NC(=O)C(C)(C)NC(=O)[C@@H](N)Cc1ccc(O)cc1)[C@@H](C)O)C(=O)N[C@@H](CO)C(=O)N[C@@H](CC(=O)O)C(=O)N[C@@H](Cc1ccc(O)cc1)C(=O)N[C@@H](CO)C(=O)N[C@H](C(=O)N[C@@](C)(CC(C)C)C(=O)N[C@@H](CC(C)C)C(=O)N[C@@H](CC(=O)O)C(=O)N[C@@H](CCCN)C(=O)N[C@@H](CCCCNC(=O)COCCOCCNC(=O)COCCOCCNC(=O)CC[C@H](NC(=O)CCCCCCCCCCCCCCCCCCC(=O)O)C(=O)O)C(=O)N[C@@H](Cc1c[nH]cn1)C(=O)N[C@@H](CCC(N)=O)C(=O)NC(C)(C)C(=O)N[C@@H](CC(=O)O)C(=O)N[C@@H](Cc1ccccc1)C(=O)N[C@H](C(=O)N[C@@H](CCC(=O)O)C(=O)N[C@@H](Cc1ccncc1)C(=O)N[C@@H](CC(C)C)C(=O)N[C@@H](CC(C)C)C(=O)N[C@@H](CCC(=O)O)C(=O)N[C@H](C(=O)NCC(=O)N1CCC[C@H]1C(=O)N[C@@H](CO)C(=O)N[C@@H](CO)C(=O)NCC(=O)N[C@@H](C)C(=O)N1CCC[C@H]1C(=O)N1CCC[C@H]1C(=O)N1CCC[C@H]1C(=O)N[C@@H](CO)C(N)=O)[C@@H](C)O)C(C)C)[C@@H](C)CC

Each binder was assayed against human glucagon receptor (human, UniProt P47871 26-477) (assay: cell-based or functional assay).
Chain of human glucagon receptor (P47871 26-477): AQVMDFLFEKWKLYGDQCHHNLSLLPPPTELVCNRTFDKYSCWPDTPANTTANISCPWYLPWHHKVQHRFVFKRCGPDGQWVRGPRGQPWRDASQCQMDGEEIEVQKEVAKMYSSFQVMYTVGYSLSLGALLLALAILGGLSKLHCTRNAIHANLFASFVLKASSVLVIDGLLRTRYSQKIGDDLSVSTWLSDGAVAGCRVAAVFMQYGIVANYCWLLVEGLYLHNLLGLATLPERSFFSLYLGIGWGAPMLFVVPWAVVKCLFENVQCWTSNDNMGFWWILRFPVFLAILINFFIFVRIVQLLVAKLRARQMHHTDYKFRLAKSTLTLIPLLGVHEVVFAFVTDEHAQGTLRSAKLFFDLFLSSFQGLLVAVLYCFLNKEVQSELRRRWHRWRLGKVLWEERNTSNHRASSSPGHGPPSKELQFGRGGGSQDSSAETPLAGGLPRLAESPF

Binder | hGcgR cAMP Rel EC50
B1 | > 5000 nM
B2 | > 5000 nM
B3 | 3000 nM
B4 | > 5000 nM
B5 | 627 nM
B6 | 2660 nM
B7 | 1200 nM
B8 | 2170 nM
B9 | > 5000 nM

What follows are binders tested against T1, human glucose-dependent insulinotropic … (assay: cell-based or functional assay).

Binder | hGIPR cAMP Rel EC50
B1 | 0.0151 nM
B2 | 0.0316 nM
B3 | 0.0125 nM
B4 | 0.0282 nM
B5 | 0.0167 nM
B6 | 0.0265 nM
B7 | 0.0154 nM
B8 | 0.0182 nM
B9 | 0.0777 nM

What follows are binders tested against human GLP-1 receptor (human, UniProt P43220 24-463) (assay: cell-based or functional assay).

Binder | hGLP1R cAMP Rel EC50
B1 | > 5000 nM
B2 | > 5000 nM
B3 | > 5000 nM
B4 | > 5000 nM
B5 | > 5000 nM
B6 | > 5000 nM
B7 | > 5000 nM
B8 | > 5000 nM
B9 | > 5000 nM

Source: US20210032299A1 (Eli Lilly, published 2021)
